Measurements: patent US20230104705A1 (CELLULAR BIOMEDICINE GROUP HK, published 2023)

Columns and labels:
CD19 = target: T1, CD19 (UniProt P15391 20-556); assay: flow cytometry on A549-CD19, A549-CD19-CD20 and Raji cells, 20 µg/mL
T1 construct: whole, on cells; also called CD19 on A549-CD19, A549-CD19-CD20, K562-CD19+, K562-CD19+CD20+ and Raji cells
T1 sequence (looked up): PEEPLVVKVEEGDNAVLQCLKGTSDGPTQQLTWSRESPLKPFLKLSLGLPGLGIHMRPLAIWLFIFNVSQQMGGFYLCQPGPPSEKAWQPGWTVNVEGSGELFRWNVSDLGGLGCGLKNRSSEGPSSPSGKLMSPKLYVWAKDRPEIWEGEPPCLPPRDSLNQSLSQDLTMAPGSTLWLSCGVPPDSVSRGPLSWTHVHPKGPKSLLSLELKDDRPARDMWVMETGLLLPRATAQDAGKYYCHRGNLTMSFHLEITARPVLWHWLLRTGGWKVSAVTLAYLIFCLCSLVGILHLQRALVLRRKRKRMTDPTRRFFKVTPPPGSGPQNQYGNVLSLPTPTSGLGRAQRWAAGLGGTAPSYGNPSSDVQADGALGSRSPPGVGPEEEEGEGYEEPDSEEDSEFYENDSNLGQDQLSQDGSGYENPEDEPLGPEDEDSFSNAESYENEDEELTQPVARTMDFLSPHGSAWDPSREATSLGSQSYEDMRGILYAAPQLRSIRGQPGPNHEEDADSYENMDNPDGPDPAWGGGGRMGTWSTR
From the text: (§1) To examine the affinity and specificity of the bi-specific scFv in TN-OF 19 CAR, a chimeric rabbit monoclonal antibody was generated by linking the CD20 scFv, derived from the Ofatumumab mAb and the CD19 scFv, derived from the FMC63 mAb in frame with a rabbit IgG1 Fc region. CD19 and CD20 scFvs were alternatively linked by a G4S linker. The molecular order is OF VL-VH-G4S-FMC63 VH-VL, which is the same as scFVs in TN-OF-19. The chimeric antibody was expressed in 293T cells after transient transfection. Validation of this chimeric antibody for specificity of staining was performed by flow cytometry. Briefly, three stable cell lines (A549-CD19, A549-CD20, A549-CD19-CD20) were used as targets, and CD19-CD20-A549 cells and CD19+CD20+ Raji cells were used as control. All cells were washed and resuspended, blocking by 2% serum for 30 minutes. 5×10⁵ cells were transferred to FACS vials, washed and stained with recombinant antibodies (final concentration 20 μg/mL) for 1 h at 4° C. After washing, the secondary antibody (goat anti-rabbit IgG) was added for 30 minutes in dark at 4° C. Finally, cells were washed and resuspended in 200 μL FACS buffer for FACS analysis.

CD20 = target: T2, CD20 (UniProt P11836 1-297); assay: flow cytometry on A549-CD20, A549-CD19-CD20 and Raji cells, 20 µg/mL
T2 construct: whole, on cells; also called B1; CD20 on A549-CD20, A549-CD19-CD20, K562-CD20+, K562-CD19+CD20+, Raji and Ramos cells
T2 sequence (looked up): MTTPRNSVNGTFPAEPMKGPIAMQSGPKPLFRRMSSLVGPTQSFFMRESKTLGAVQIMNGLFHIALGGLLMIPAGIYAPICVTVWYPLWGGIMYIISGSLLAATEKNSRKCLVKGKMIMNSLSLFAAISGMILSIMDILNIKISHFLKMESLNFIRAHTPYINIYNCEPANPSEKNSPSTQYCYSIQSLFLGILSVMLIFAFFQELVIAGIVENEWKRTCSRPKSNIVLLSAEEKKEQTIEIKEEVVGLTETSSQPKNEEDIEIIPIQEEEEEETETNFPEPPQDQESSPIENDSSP
From the text: as §1

binding result (CD19): binds
binding result (CD20): binds
B1: chimeric rabbit monoclonal antibody (CD20 scFv derived from the Ofatumumab mAb and CD19 scFv derived from the FMC63 mAb, in frame with a rabbit IgG1 Fc region; … (bispecific antibody)
chain: EIVLTQSPATLSLSPGERATLSCRASQSVSSYLAWYQQKPGQAPRLLIYDASNRATGIPARFSGSGSGTDFTLTISSLEPEDFAVYYCQQRSNWPITFGQGTRLEIKGSTSGGGSGGGSGGGGSSEVQLVESGGGLVQPGRSLRLSCAASGFTFNDYAMHWVRQAPGKGLEWVSTISWNSGSIGYADSVKGRFTISRDNAKKSLYLQMNSLRAEDTALYYCAKDIQYGNYYYGMDVWGQGTTVTVSSGGGGSEVKLQESGPGLVAPSQSLSVTCTVSGVSLPDYGVSWIRQPPRKGLEWLGVIWGSETTYYNSALKSRLTIIKDNSKSQVFLKMNSLQTDDTAIYYCAKHYYYGGSYAMDYWGQGTSVTVSSGSTSGSGKPGSGEGSTKGDIQMTQTTSSLSASLGDRVTISCRASQDISKYLNWYQQKPDGTVKLLIYHTSRLHSGVPSRFSGSGSGTDYSLTISNLEQEDIATYFCQQGNTLPYTFGGGTKLEIT
notes: Expressed in 293T cells after transient transfection; also called chimeric antibody; recombinant antibodies; not shown: rabbit IgG1 Fc region
